The record followed here is doi:10.1101/2022.04.11.487922.

Read-outs that look alike come from different tables or passages of the source.

Data set [1] concerns the target T1, p50 (in p50/RelA);RelA FL (in p50/RelAFL) (Mus musculus;Mus musculus, UniProt P25799;Q04207 39-350;19-549, |). In words: fluorescence anisotropy. (In general: Polarisation of emitted light reports the rotation of a fluorescent probe.)
The target in data set [2] is T2, p50 (in p50/RelA);RelA RHD (in p50/RelARHD) (Mus musculus;Mus musculus, UniProt P25799;Q04207 39-350;19-321, |). In words: fluorescence anisotropy.
T2 sequence (P25799 39-350, chain 1 of 2): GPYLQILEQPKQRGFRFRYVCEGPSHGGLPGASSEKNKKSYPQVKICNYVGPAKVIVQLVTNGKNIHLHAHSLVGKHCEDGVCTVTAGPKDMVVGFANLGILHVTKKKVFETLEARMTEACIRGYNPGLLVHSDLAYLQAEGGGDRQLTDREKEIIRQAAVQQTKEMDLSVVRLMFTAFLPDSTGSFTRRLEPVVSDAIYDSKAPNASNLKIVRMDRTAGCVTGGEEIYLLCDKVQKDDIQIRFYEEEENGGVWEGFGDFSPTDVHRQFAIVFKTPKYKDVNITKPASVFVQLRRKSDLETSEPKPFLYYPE
T2 sequence (Q04207 19-321, chain 2 of 2): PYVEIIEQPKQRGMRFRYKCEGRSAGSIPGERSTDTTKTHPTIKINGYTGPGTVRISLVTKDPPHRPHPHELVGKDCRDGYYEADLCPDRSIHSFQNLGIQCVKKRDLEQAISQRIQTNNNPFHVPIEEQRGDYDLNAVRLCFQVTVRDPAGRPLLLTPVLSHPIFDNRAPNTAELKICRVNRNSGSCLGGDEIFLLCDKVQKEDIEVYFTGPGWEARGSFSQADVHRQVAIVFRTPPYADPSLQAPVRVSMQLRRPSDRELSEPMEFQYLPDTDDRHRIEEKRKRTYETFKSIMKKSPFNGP
The target of data set [3] is T1, p50 (in p50/RelA);RelA FL (in …). Briefly: fluorescence anisotropy. The source holds these as a separate data set.
Data set [4] addresses T2, p50 (in p50/RelA);RelA RHD (in …). In words: fluorescence anisotropy. The source holds these as a separate data set.
For data set [5], the target named is T1, p50 (in p50/RelA);RelA FL (in …). In words: fluorescence anisotropy. The source holds these as a separate data set.
Data set [6] has as its target T2, p50 (in p50/RelA);RelA RHD (in …). In words: fluorescence anisotropy. This is another data set of the same source.
Data set [7] concerns the target T1, p50 (in p50/RelA);RelA FL (in …). Briefly: EMSA. In general terms: Mobility shift assays separate free from complexed probe on a gel.
Data set [8] concerns the target T2, p50 (in p50/RelA);RelA RHD (in …). Briefly: EMSA.
In data set [9] the target is T1, p50 (in p50/RelA);RelA FL (in …). In words: fluorescence anisotropy. This is another data set of the same source.
Data set [10] deals with T2, p50 (in p50/RelA);RelA RHD (in …). Briefly: fluorescence anisotropy. The source holds these as a separate data set.
The target of data set [11] is T1, p50 (in p50/RelA);RelA FL (in …). In words: EMSA. This is another data set of the same source.
Data set [12] concerns the target T2, p50 (in p50/RelA);RelA RHD (in …). In words: EMSA. This is another data set of the same source.
The target of data set [13] is T1, p50 (in p50/RelA);RelA FL (in …). In words: EMSA. The source holds these as a separate data set.
Data set [14] deals with T2, p50 (in p50/RelA);RelA RHD (in …). In words: EMSA. This is another data set of the same source.
Data set [15] has as its target T1, p50 (in p50/RelA);RelA FL (in …). In words: EMSA. This is another data set of the same source.
In data set [16] the target is T2, p50 (in p50/RelA);RelA RHD (in …). In words: EMSA. The source holds these as a separate data set.
Data set [17] has as its target T1, p50 (in p50/RelA);RelA FL (in …). Briefly: EMSA. The source holds these as a separate data set.
In data set [18] the target is T2, p50 (in p50/RelA);RelA RHD (in …). In words: EMSA. This is another data set of the same source.

T1 sequence (P25799 39-350, chain 1 of 2): as the sequence (P25799 39-350, chain 1 of 2) above
T1 sequence (Q04207 19-549, chain 2 of 2): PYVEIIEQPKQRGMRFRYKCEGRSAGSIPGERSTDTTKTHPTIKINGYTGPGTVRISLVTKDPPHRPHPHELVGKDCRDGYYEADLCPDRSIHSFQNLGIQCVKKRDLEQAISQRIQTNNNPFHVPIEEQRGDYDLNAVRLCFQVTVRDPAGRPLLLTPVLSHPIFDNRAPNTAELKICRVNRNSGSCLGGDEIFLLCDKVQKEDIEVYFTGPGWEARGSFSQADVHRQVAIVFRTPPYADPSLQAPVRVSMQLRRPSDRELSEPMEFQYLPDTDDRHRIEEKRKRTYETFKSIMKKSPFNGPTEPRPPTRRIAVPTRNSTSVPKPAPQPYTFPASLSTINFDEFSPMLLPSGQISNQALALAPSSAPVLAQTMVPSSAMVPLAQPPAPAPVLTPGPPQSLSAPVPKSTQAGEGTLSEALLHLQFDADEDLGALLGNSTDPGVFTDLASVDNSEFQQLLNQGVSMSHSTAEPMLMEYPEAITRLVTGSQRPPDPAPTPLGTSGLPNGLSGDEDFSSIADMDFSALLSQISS

B1: NFKBIA tandem dsDNA (anisotropy), forward label (dsDNA)
DNA 1: CTTGGAAATTCCCCGAGCCTGACCCCGCCCCAGAGAAATCCCCAG
DNA 2: CTGGGGATTTCTCTGGGGCGGGGTCAGGCTCGGGGAATTTCCAAG
modifications: 5' 5AmMC6
For B1, the Kd in data set [1] worked out at 1.5 ± 0.7 nM; in [2], 1.7 ± 0.5 nM.

B2: NFKBIA tandem dsDNA (anisotropy), reverse label (dsDNA)
DNA 1: CTTGGAAATTCCCCGAGCCTGACCCCGCCCCAGAGAAATCCCCAG
DNA 2: CTGGGGATTTCTCTGGGGCGGGGTCAGGCTCGGGGAATTTCCAAG
modifications: 5' 5AmMC6
As to B2, the Kd was 5.1 ± 0.4 nM in [3] and 10 ± 2 nM in [4].
Consider GTAGACGTGCTCCCCCAGCACGTCTAC (structured_DNA, 5' 5AmMC6) [Random hairpin], for which the figures for the Kd in [5] and in data set [6] were 130 ± 40 nM and 1500 ± 100 nM, respectively.

B3: HIV LTR, site 2 scrambled (dsDNA)
DNA 1: AAGGGACTTTCCGCTGGTCGACTGTCAGGGAGG
DNA 2: CCTCCCTGACAGTCGACCAGCGGAAAGTCCCTT
Turning to B3, the binding result in data set [7] and in [8] was “binds” each time.

B4: HIV LTR tandem dsDNA (anisotropy) (dsDNA)
DNA 1: CAAGGGACTTTCCGCTGGGGACTTTCCAGG
DNA 2: CCTGGAAAGTCCCCAGCGGAAAGTCCCTTG
modifications: 5' 5AmMC6
Turning to B4, the Kd in [9] was found to be 1.3 ± 0.4 nM; in data set [10], 1.7 ± 0.4 nM.

B5: NFKBIA tandem kB 59 bp (EMSA) (dsDNA)
DNA 1: CTGACTGGCTTGGAAATTCCCCGAGCCTGACCCCGCCCCAGAGAAATCCCCAGCCAGCG
DNA 2: CGCTGGCTGGGGATTTCTCTGGGGCGGGGTCAGGCTCGGGGAATTTCCAAGCCAGTCAG
As to B5, the binding result in data set [11] and in data set [12] was “binds” each time.

B6: NFKBIA, site 1 scrambled (dsDNA)
DNA 1: CTGACTGGCTTAGTCACGTCACGAGCCTGACCCCGCCCCAGAGAAATCCCCAGCCAGCG
DNA 2: CGCTGGCTGGGGATTTCTCTGGGGCGGGGTCAGGCTCGTGACGTGACTAAGCCAGTCAG
In the case of B6, the binding result in [13] and in data set [14] was “binds” each time.

B7: NFKBIA, site 2 scrambled (dsDNA)
DNA 1: CTGACTGGCTTGGAAATTCCCCGAGCCTGACCCCGCCCCAAGCACTGACACAGCCAGCG
DNA 2: CGCTGGCTGTGTCAGTGCTTGGGGCGGGGTCAGGCTCGGGGAATTTCCAAGCCAGTCAG
Turning to B7, the binding result in data set [13] and in [14] was “binds” in each case.

B8: HIV LTR, site 1 scrambled (dsDNA)
DNA 1: AAGTCGACTGTCGCTGGGGACTTTCCAGGGAGG
DNA 2: CCTCCCTGGAAAGTCCCCAGCGACAGTCGACTT
Turning to B8, the binding result in data set [15] and in [16] was “binds” in each case.

B9: HIV LTR tandem kB 33 bp (EMSA) (dsDNA)
DNA 1: AAGGGACTTTCCGCTGGGGACTTTCCAGGGAGG
DNA 2: CCTCCCTGGAAAGTCCCCAGCGGAAAGTCCCTT
Take B9: the binding result in data set [17] and in data set [18] was “binds” throughout.

The term Kd denotes the free concentration of one partner at which half of the binding sites on the other are occupied at equilibrium, for simple one-to-one binding. Higher therefore signals weaker binding.
